# In doi:10.1101/2022.07.22.501140:
# Like-named read-outs stand apart in the source and are kept apart here.
# T1: DmBicc1 N-term (Drosophila melanogaster, UniProt Q24009 1-506)
# T1 sequence: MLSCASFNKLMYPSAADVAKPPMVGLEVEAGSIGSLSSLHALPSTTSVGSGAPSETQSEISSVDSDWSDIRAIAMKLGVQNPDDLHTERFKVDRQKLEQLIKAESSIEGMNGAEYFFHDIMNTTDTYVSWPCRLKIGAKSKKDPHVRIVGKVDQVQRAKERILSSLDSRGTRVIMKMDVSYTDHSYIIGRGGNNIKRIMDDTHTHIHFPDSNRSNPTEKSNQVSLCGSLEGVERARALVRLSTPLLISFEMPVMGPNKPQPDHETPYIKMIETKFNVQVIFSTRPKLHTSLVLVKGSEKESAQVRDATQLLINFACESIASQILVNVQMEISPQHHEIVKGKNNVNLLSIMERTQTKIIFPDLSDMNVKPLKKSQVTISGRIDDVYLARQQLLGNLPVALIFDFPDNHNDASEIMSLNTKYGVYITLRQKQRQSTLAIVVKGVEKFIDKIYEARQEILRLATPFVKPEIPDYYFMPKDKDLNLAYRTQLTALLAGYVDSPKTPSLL
# Columns and labels:
# Test in all cases: fluorescence polarization
# DmBicc1 N-term [1] = target: T1, DmBicc1 N-term
# XlBicc1 N-term (KH1-KH3) [2] = target: T2, XlBicc1 N-term (KH1-KH3) (Xenopus laevis, UniProt A0A1L8FE49 1-506)
# XlKH1-DmBicc1KH2-KH3 [3] = target: T3, XlKH1-DmBicc1KH2-KH3 (Xenopus laevis / Drosophila …, UniProt A0A1L8FE49 1-134+Q24009:179-506, internal_change)
# HsBicc1 N-term [4] = target: T4, HsBicc1 N-term (human, UniProt Q9H694 1-506)
# XlBicc1 N-term (KH1-KH3) [5] = target: T2, XlBicc1 N-term (KH1-KH3); remark: listed apart in the source
# XlKH1-DmBicc1KH2-KH3 [6] = target: T3, XlKH1-DmBicc1KH2-KH3; remark: listed apart in the source
# DmBicc1 N-term [7] = target: T1, DmBicc1 N-term; remark: listed apart in the source
# HsBicc1 N-term [8] = target: T4, HsBicc1 N-term; remark: listed apart in the source
# HsBicc1 N-term [9] = target: T4, HsBicc1 N-term; remark: listed apart in the source
# XlBicc1 N-term (KH1-KH3) [10] = target: T2, XlBicc1 N-term (KH1-KH3); remark: listed apart in the source
# T4 sequence (Q9H694 1-506): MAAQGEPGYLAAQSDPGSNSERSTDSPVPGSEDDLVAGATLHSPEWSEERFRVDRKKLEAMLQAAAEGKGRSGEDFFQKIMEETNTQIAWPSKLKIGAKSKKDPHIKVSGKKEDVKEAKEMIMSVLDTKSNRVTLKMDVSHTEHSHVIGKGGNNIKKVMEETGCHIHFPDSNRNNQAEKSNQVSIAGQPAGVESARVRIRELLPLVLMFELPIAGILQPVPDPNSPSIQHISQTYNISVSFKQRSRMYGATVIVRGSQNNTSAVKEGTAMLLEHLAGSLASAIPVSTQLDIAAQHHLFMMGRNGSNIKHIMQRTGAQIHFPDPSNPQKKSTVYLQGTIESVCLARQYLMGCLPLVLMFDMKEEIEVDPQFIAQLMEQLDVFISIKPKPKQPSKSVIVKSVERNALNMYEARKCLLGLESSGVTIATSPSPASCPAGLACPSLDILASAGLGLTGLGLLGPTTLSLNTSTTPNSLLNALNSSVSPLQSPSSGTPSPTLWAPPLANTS
binder,measurement,setting,value
CUUAUUAGACACGUUGUACAUUAACAGCUCC (structured_RNA) [XlCripto-1 wild-type RNA site],Kd,DmBicc1 N-term [1],93 nM
same,Kd,XlBicc1 N-term (KH1-KH3) [2],34 nM
same,Kd,XlKH1-DmBicc1KH2-KH3 [3],89 nM
same,binding result,HsBicc1 N-term [4],binds
CUUAUUAGACACGUUGUCGCGAAACAGCUCC (structured_RNA) [Cripto-1 loop variant],Kd,XlBicc1 N-term (KH1-KH3) [5],~12000 nM
same,binding result,XlKH1-DmBicc1KH2-KH3 [6],no binding
same,binding signal,DmBicc1 N-term [7],3.2 fold reduction vs wild-type RNA
same,binding signal,HsBicc1 N-term [8],15 fold reduction vs wild-type RNA
CGACUCUAGAAGGUUGUACAUUAACAGCUCC (structured_RNA) [Cripto-1 leader variant],binding result,DmBicc1 N-term [1],no binding
same,binding result,HsBicc1 N-term [9],no binding
same,binding result,XlBicc1 N-term (KH1-KH3) [2],no binding
CGACUCUAGAAGGACUACGUGGCAUUCCAAUU (ssRNA) [Cyclin B1 negative control RNA],binding result,XlBicc1 N-term (KH1-KH3) [10],no binding
